B1: SWC11 (antibody, V domains shown)
VH: EVQLVESGGGLIQPGGSLRLSCAASEFIVSRNYMSWVRQAPGTGLEWVSVIYPGGSTFYADSVKGRFTISRDNSKNTLYLQMDSLRVEDTAVYYCARDYGDFYFDYWGQGTLVTVSS
VL: EIVMTQSPVSLSVSPGERATLSCRASQGVASNLAWYQQKAGQAPRLLIYGASTRATGIPARFSGSGSGTEFTLTISTLQSEDSAVYYCQQYNDRPRTFGQGTKLEIK
B2: 2YYQH9 (antibody, V domains shown)
VH: EVQLVESGGGLIQPGGSLRLSCAASGVTVIRNYMTWVRQAPGKGLEWVSVIYPGGTTYYADSVKGRFTISRDSSKNTLYLQMNSLRAEDAAVYFCARAYGDYYFDLWGQGTLLTVSS
VL: EMVMTQSPASLSLSPGERATLSCRASQGVDSSYLAWYQQKPGQAPRLLMYGASSRATGIPDRFSGSGYGTDFTLTISRVEPEDFAVYYCQVAFTFGQGTKVEIK
B3: SWA9 (antibody, V domains shown)
VH: QMQLVQSGPEVKKPGTSVKVSCKASGFTFTNSAMQWVRQARGQRLEWVGWIVVASGNANSARRFHDRVTITSDMSTSTAYLELSSLRSEDTAVYYCALNHCSNTTCLDGFDIWGQGTMVSVSS
VL: EIVLTQSPVTLSLSPGERATLSCRASQSVRNSLLAWYQQKPGQAPRLLIYAASSRATGIPDRFSGSGSGTDFTLTISRLEPEDFVVYYCQQHGSSPPWTFGQGTKVEFK

The target of one experiment is T1, SARS-CoV-2 prototype RBD-His tag protein (Severe acute respiratory syndrome …, UniProt P0DTC2). The experiment in a line: cell-based or functional assay.
B1: the “neutralisation of SARS-CoV-2 prototype pseudovirus, IC50” value (“neutralisation” below) was less than 0.1 µg/mL.

For the molecule B2, the “neutralisation” value was less than 0.1 µg/mL.

On to B3, for which the “neutralisation” value is less than 0.1 µg/mL.

A further experiment has as its target T1, SARS-CoV-2 prototype RBD-His tag protein. The experiment in a line: SPR. On the technique in general: Surface plasmon resonance follows binding to a sensor surface in real time, without labels.
One may read the Kd as the constant that tells how readily two partners part at equilibrium. A high value points to a looser complex. Regarding B1, the affinity, expressed as Kd, was 0.627 nM.

As to B2, the Kd stood at 0.428 nM. This Kd and that of the molecule before are within 1.5-fold of each other.

With B3, the affinity, expressed as Kd, was 0.345 nM.

(Values after publication PMC11844185 (Journal of Translational Medicine, 2025).)
